Numbering of substitutions follows the chain as printed.
Key:
[1] = biological target: ETS1:RUNX1 (Homo sapiens, UniProt P14921;Q01196 full;full); test: gcPBM; 1 nM ETS1 + 25 nM RUNX1, anti-ETS1 signal, normalised; settings: tags: N-terminal GST (pDEST15), kept (PMC6008103); copies: 1;1; label: surface-attached array probe
[2] = biological target: RUNX1 (Homo sapiens, UniProt Q01196); test: gcPBM; 2 nM RUNX1; settings: tags: N-terminal GST (pDEST15), kept (PMC6008103); label: surface-attached array probe
Sequence of RUNX1 (Q01196 whole entry): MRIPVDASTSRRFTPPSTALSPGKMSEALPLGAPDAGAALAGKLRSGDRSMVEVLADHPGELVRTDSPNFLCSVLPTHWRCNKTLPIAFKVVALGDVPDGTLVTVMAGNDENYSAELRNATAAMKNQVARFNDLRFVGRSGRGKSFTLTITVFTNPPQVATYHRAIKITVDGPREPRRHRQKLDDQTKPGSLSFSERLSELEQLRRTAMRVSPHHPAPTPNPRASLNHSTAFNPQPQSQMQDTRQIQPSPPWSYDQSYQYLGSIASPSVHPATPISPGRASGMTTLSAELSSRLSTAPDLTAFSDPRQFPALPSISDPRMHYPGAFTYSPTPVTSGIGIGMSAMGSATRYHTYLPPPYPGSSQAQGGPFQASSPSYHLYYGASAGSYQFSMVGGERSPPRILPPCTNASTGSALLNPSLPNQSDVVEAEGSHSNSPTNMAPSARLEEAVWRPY

Sequence of ETS1:RUNX1 (P14921 whole entry, chain 1 of 2): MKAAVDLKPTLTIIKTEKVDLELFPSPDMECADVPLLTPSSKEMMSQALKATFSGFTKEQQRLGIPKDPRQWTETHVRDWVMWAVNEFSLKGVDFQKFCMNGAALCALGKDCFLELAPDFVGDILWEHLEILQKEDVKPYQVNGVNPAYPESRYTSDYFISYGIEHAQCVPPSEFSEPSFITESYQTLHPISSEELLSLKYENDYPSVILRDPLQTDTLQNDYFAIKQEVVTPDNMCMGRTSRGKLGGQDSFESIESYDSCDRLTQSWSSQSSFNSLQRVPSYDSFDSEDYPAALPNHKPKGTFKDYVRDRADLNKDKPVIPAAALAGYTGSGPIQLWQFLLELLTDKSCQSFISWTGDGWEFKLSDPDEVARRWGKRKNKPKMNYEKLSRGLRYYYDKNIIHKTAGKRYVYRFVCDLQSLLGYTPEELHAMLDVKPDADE
Sequence of ETS1:RUNX1 (Q01196 whole entry, chain 2 of 2): as the sequence (Q01196 whole entry) above

B1: Table S2 A row 466 (dsDNA)
DNA 1: GTGCTAGGACACAGGAAGCGATACCACAAAGAACAT
DNA 2: ATGTTCTTTGTGGTATCGCTTCCTGTGTCCTAGCAC
binding signal [1]: 19800 PBM fluorescence, median of replicate spots

B2: Table S3 C row 182 (dsDNA)
DNA 1: TCTGCAGAGGGTTCCCGGATACACCTTGCGAAGAAT
DNA 2: ATTCTTCGCAAGGTGTATCCGGGAACCCTCTGCAGA
binding signal [2]: 844 PBM fluorescence, median of replicate spots

B3: Table S3 C row 37 (dsDNA)
DNA 1: ACCCTCTGTTTTGAGCTTCCGGTAGAGGCTGGTAGG
DNA 2: CCTACCAGCCTCTACCGGAAGCTCAAAACAGAGGGT
binding signal [2]: 852 PBM fluorescence, median of replicate spots

B4: Table S3 C row 142 (dsDNA)
DNA 1: GCCCCTGCCCCAGAGAGGAAGTTCGGCCTCATCGAG
DNA 2: CTCGATGAGGCCGAACTTCCTCTCTGGGGCAGGGGC
binding signal [2]: 827 PBM fluorescence, median of replicate spots

B5: Table S2 A row 1759 (dsDNA)
DNA 1: CCTGTTGATAAAACAGGATGTGGTAAAGAAGCTGGC
DNA 2: GCCAGCTTCTTTACCACATCCTGTTTTATCAACAGG
binding signal [1]: 43300 PBM fluorescence, median of replicate spots

B6: Table S2 A row 964 (dsDNA)
DNA 1: AATCTGAAACAGGAAATAAGTCTGTGGTTGTGTGTT
DNA 2: AACACACAACCACAGACTTATTTCCTGTTTCAGATT
binding signal [1]: 23600 PBM fluorescence, median of replicate spots

B7: Table S3 C row 149 (dsDNA)
DNA 1: CTCAAGGAGGTGGGACTTCCTGCTAGGTGGGCCGTG
DNA 2: CACGGCCCACCTAGCAGGAAGTCCCACCTCCTTGAG
binding signal [2]: 829 PBM fluorescence, median of replicate spots

B8: Table S2 A row 1371 (dsDNA)
DNA 1: GAACCTGGGAGGCGGAAGTTGCGGTTAGCCGAGATC
DNA 2: GATCTCGGCTAACCGCAACTTCCGCCTCCCAGGTTC
binding signal [1]: 64700 PBM fluorescence, median of replicate spots

B9: Table S2 A row 978 (dsDNA)
DNA 1: ACTGAACAAACCGGATGTGGTTGCCACCTGCAATCT
DNA 2: AGATTGCAGGTGGCAACCACATCCGGTTTGTTCAGT
binding signal [1]: 38500 PBM fluorescence, median of replicate spots

B10: Table S2 A row 1184 (dsDNA)
DNA 1: GAAGCTCCCCAAACAGGATGTGGTTAGGGAGAGGGG
DNA 2: CCCCTCTCCCTAACCACATCCTGTTTGGGGAGCTTC
binding signal [1]: 58300 PBM fluorescence, median of replicate spots

B11: Table S2 A row 1206 (dsDNA)
DNA 1: TTGATTGGAGCAGGATGTGGTCAGAACAGTATGCAG
DNA 2: CTGCATACTGTTCTGACCACATCCTGCTCCAATCAA
binding signal [1]: 23200 PBM fluorescence, median of replicate spots

B12: Table S3 C row 189 (dsDNA)
DNA 1: TCGCTGATGGCGTCATTTCCGTGAGTCATCTGAGGG
DNA 2: CCCTCAGATGACTCACGGAAATGACGCCATCAGCGA
binding signal [2]: 823 PBM fluorescence, median of replicate spots

B13: Table S3 C row 183 (dsDNA)
DNA 1: CGCCCCAATGTTCGGCGGAAGGGAGGGAGGGTCTCC
DNA 2: GGAGACCCTCCCTCCCTTCCGCCGAACATTGGGGCG
binding signal [2]: 835 PBM fluorescence, median of replicate spots

B14: Table S2 A row 1401 (dsDNA)
DNA 1: GCATTTACGGGCAGGAAATGAAACCACAGAGTACAA
DNA 2: TTGTACTCTGTGGTTTCATTTCCTGCCCGTAAATGC
binding signal [1]: 36500 PBM fluorescence, median of replicate spots

B15: Table S2 A row 393 (dsDNA)
DNA 1: CTGACGCATTTCCGGCCTTTGCGGTTGATCGGTCAT
DNA 2: ATGACCGATCAACCGCAAAGGCCGGAAATGCGTCAG
binding signal [1]: 30800 PBM fluorescence, median of replicate spots

B16: Table S2 A row 270 (dsDNA)
DNA 1: CTCATTGACAGGAAGTCTAACCACAGGCTTAGGCCC
DNA 2: GGGCCTAAGCCTGTGGTTAGACTTCCTGTCAATGAG
binding signal [1]: 29200 PBM fluorescence, median of replicate spots

B17: Table S3 C row 88 (dsDNA)
DNA 1: TCTCACGTAGACGCGCGGAAACACTAACGAGTTGAA
DNA 2: TTCAACTCGTTAGTGTTTCCGCGCGTCTACGTGAGA
binding signal [2]: 840 PBM fluorescence, median of replicate spots

B18: Table S2 A row 987 (dsDNA)
DNA 1: TGGGCAGGAAGTGGTATCTGATTGTGGTTTTGATTT
DNA 2: AAATCAAAACCACAATCAGATACCACTTCCTGCCCA
binding signal [1]: 25700 PBM fluorescence, median of replicate spots

B19: Table S2 A row 166 (dsDNA)
DNA 1: GATATGGCAGGAAGTAGGGCCTGGAAACCGCACGGC
DNA 2: GCCGTGCGGTTTCCAGGCCCTACTTCCTGCCATATC
binding signal [1]: 25500 PBM fluorescence, median of replicate spots

B20: Table S2 A row 1146 (dsDNA)
DNA 1: GACACAAGCCTCACAGGATGTGGTCAAAGAAGGTTG
DNA 2: CAACCTTCTTTGACCACATCCTGTGAGGCTTGTGTC
binding signal [1]: 20600 PBM fluorescence, median of replicate spots

B21: Table S2 A row 1295 (dsDNA)
DNA 1: GCTCTGGGTCACACAGGATGTGGTTTTTGAAGTTTG
DNA 2: CAAACTTCAAAAACCACATCCTGTGTGACCCAGAGC
binding signal [1]: 49000 PBM fluorescence, median of replicate spots

B22: Table S2 A row 167 (dsDNA)
DNA 1: GACAATGAGCGCACAGGATGTGGTTTGGCGGCAGGG
DNA 2: CCCTGCCGCCAAACCACATCCTGTGCGCTCATTGTC
binding signal [1]: 33400 PBM fluorescence, median of replicate spots

B23: Table S3 C row 136 (dsDNA)
DNA 1: GAACTCAGTACAGGCCGGAAGTCGGGGTACGGGGCC
DNA 2: GGCCCCGTACCCCGACTTCCGGCCTGTACTGAGTTC
binding signal [2]: 841 PBM fluorescence, median of replicate spots

B24: Table S2 A row 443 (dsDNA)
DNA 1: CCATGCACAACAGGATGTGGTTAGACAGTCAAAATT
DNA 2: AATTTTGACTGTCTAACCACATCCTGTTGTGCATGG
binding signal [1]: 29600 PBM fluorescence, median of replicate spots

B25: Table S3 C row 177 (dsDNA)
DNA 1: TCTCCTACTCCTGCGCGGATGCTCTAGGCCGCTTGC
DNA 2: GCAAGCGGCCTAGAGCATCCGCGCAGGAGTAGGAGA
binding signal [2]: 846 PBM fluorescence, median of replicate spots

B26: Table S3 C row 158 (dsDNA)
DNA 1: ACAAAAAAACCCTACCTTCCGCCATGTCTGGCCCGG
DNA 2: CCGGGCCAGACATGGCGGAAGGTAGGGTTTTTTTGT
binding signal [2]: 847 PBM fluorescence, median of replicate spots

B27: Table S3 C row 141 (dsDNA)
DNA 1: CTCCAACCCTTGTCCCTTCCGCCTGCCACTGCAGGT
DNA 2: ACCTGCAGTGGCAGGCGGAAGGGACAAGGGTTGGAG
binding signal [2]: 850 PBM fluorescence, median of replicate spots

B28: Table S2 A row 327 (dsDNA)
DNA 1: AATTGAGACAGGAAATGTTGGTTTGTGGTCAGGCAC
DNA 2: GTGCCTGACCACAAACCAACATTTCCTGTCTCAATT
binding signal [1]: 28000 PBM fluorescence, median of replicate spots

B29: Table S3 C row 115 (dsDNA)
DNA 1: GCCACCAGAGGGCGCCGGAAGTCCTGACCCATTGTC
DNA 2: GACAATGGGTCAGGACTTCCGGCGCCCTCTGGTGGC
binding signal [2]: 838 PBM fluorescence, median of replicate spots

B30: Table S2 A row 1136 (dsDNA)
DNA 1: CCCGCTCACGCCGGAAGTGGTTTGCGTTTTCAAGAT
DNA 2: ATCTTGAAAACGCAAACCACTTCCGGCGTGAGCGGG
binding signal [1]: 22300 PBM fluorescence, median of replicate spots

B31: Table S2 A row 1217 (dsDNA)
DNA 1: TGGGGGATGGCAGCAGGATGTGGTTATCTCAGAAAG
DNA 2: CTTTCTGAGATAACCACATCCTGCTGCCATCCCCCA
binding signal [1]: 29000 PBM fluorescence, median of replicate spots

B32: Table S3 C row 186 (dsDNA)
DNA 1: GCTTTCTGGACTACACTTCCCAGAAGCCTCTAGGCC
DNA 2: GGCCTAGAGGCTTCTGGGAAGTGTAGTCCAGAAAGC
binding signal [2]: 826 PBM fluorescence, median of replicate spots

B33: Table S2 A row 1758 (dsDNA)
DNA 1: GCTGATAGAACAGGATGTGGTAAAGAAGCAGGCCAA
DNA 2: TTGGCCTGCTTCTTTACCACATCCTGTTCTATCAGC
binding signal [1]: 24600 PBM fluorescence, median of replicate spots

B34: Table S2 A row 280 (dsDNA)
DNA 1: CCTGCAGCAACAGGATGTGGTTTGAAAGGATGAAAG
DNA 2: CTTTCATCCTTTCAAACCACATCCTGTTGCTGCAGG
binding signal [1]: 32100 PBM fluorescence, median of replicate spots

B35: Table S3 C row 175 (dsDNA)
DNA 1: CTGCGCGGCCCACCCCGGATGTCAGCCCCACGCGCC
DNA 2: GGCGCGTGGGGCTGACATCCGGGGTGGGCCGCGCAG
binding signal [2]: 823 PBM fluorescence, median of replicate spots

B36: Table S2 A row 92 (dsDNA)
DNA 1: GTCCCCGTAACAGGATGTGGTGAGCTGTTATACCAC
DNA 2: GTGGTATAACAGCTCACCACATCCTGTTACGGGGAC
binding signal [1]: 19700 PBM fluorescence, median of replicate spots

B37: Table S3 C row 125 (dsDNA)
DNA 1: TTCCATTCGATGATGCTTCCGTATGAATCCATTCAC
DNA 2: GTGAATGGATTCATACGGAAGCATCATCGAATGGAA
binding signal [2]: 844 PBM fluorescence, median of replicate spots

B38: Table S3 C row 73 (dsDNA)
DNA 1: CCCAGATCACATGACAGGAAGGCAAAGTCCTCAGGT
DNA 2: ACCTGAGGACTTTGCCTTCCTGTCATGTGATCTGGG
binding signal [2]: 850 PBM fluorescence, median of replicate spots

B39: Table S3 C row 60 (dsDNA)
DNA 1: GGGGCTACTCGCAACAGGAAGTTCGGCCCTTAAAAA
DNA 2: TTTTTAAGGGCCGAACTTCCTGTTGCGAGTAGCCCC
binding signal [2]: 839 PBM fluorescence, median of replicate spots

B40: Table S2 A row 644 (dsDNA)
DNA 1: GCCGGCGGCCGGAAGTCTATCCCGCAGAAGCGCAGC
DNA 2: GCTGCGCTTCTGCGGGATAGACTTCCGGCCGCCGGC
binding signal [1]: 19100 PBM fluorescence, median of replicate spots

B41: Table S2 A row 1460 (dsDNA)
DNA 1: TAGCCACTAACCGGAAACGTTAAACCACAGCTCCGT
DNA 2: ACGGAGCTGTGGTTTAACGTTTCCGGTTAGTGGCTA
binding signal [1]: 56100 PBM fluorescence, median of replicate spots

B42: Table S2 A row 706 (dsDNA)
DNA 1: B41 DNA 1 with T8G
DNA 2: B41 DNA 2 with A29C
binding signal [1]: 46400 PBM fluorescence, median of replicate spots

B43: Table S3 C row 68 (dsDNA)
DNA 1: CCCTATTCGCAGAGGAGGAAGTGGAGGCTCTCCAGG
DNA 2: CCTGGAGAGCCTCCACTTCCTCCTCTGCGAATAGGG
binding signal [2]: 829 PBM fluorescence, median of replicate spots
